Experimental findings from EP4796681A2 (Daiichi Sankyo Co., Ltd., dated 2026) are described below.

Test [1] deals with T1, Chymotrypsin (Worthington Biochemical Corp.) (Bos taurus (Bovine), UniProt P00766 1-13; P00766 16-146; P00766 149-245). Kind of test: ELISA, chymotrypsin coated on plate, detection by HRP-conjugated S-Tag antibody.
Test [2] deals with T1, Chymotrypsin (Worthington Biochemical …). Kind of test: cell-based or functional assay.

B1: α-chymotrypsin-binding peptide No. 2 (SPINK2 mutant) (designed binder)
chain: DPQFGLFSKYRTPNCMRHRRHFCTMVYKPVCGSDMSTYANECTLCMKIREGGHNIKIIRNGPC
notes: Expressed in E. coli Origami B (DE3) as thioredoxin/His fusion, thioredoxin tag cleaved by thrombin; mainly monomer; also called clone 2; not shown: vector-derived N-terminal residues left after thrombin cleavage of the pET 32a (varied) fusion, including the S-tag used
As usually defined, the EC50 is the concentration needed to bring the measured effect to its halfway point. Consider B1, for which the response in test [1] was half-maximal at 18.3 nM (EC50). For the same molecule, in test [2], the “IC50 of chymotrypsin inhibitory activity (Pierce Quantitative Protease Assay Kit)” value turned out to be 815 nM.

B2: α-chymotrypsin-binding peptide No. 6 (SPINK2 mutant) (designed binder)
chain: DPQFGLFSKYRTPNCRRWLLPWCTYKYKPVCGSDMSTYANECTLCMKIREGGHNIKIIRNGPC
notes: Expressed in E. coli Origami B (DE3) as thioredoxin/His fusion, thioredoxin tag cleaved by thrombin; mainly monomer; also called clone 6; not shown: vector-derived N-terminal residues left after thrombin cleavage of the pET 32a (varied) fusion, including the S-tag used
Regarding B2, in test [1], the concentration giving a half-maximal response (EC50) came to 17.8 nM. Further, in test [2], the “IC50 of chymotrypsin inhibitory activity (Pierce Quantitative Protease Assay Kit)” value turned out to be 374 nM.
